Numbered stars: 1 amine (or outer) side, 2 acyl side, 3 side chain; on linkers, the order of the positions; unused ones are H or OH. Bridge positions count the residues as written; N and C are the ends. Square brackets hold non-standard residues; d marks the D form. Ends that are not written are not given here. Peptide text beside a SMILES is read from it. MeKCOpipzaa = N6-(4-(carboxymethyl)piperazine-1-carbonyl)-N2-methyl-L-lysine, CN([C@@H](CCCCNC(=O)N1CCN(CC(=O)[*:3])CC1)C(=O)[*:2])[*:1]; KCOpipzaa = N6-(4-(carboxymethyl)piperazine-1-carbonyl)-L-lysine, O=C(NCCCC[C@H](N[*:1])C(=O)[*:2])N1CCN(CC(=O)[*:3])CC1; Bph3C = (S)-2-amino-3-(3'-chloro-[1,1'-biphenyl]-4-yl)propanoic acid, O=C([C@H](Cc1ccc(-c2cccc(Cl)c2)cc1)N[*:1])[*:2]; X7 = O=C(O)CCC(NC(=O)CCNC(=O)[C@H](CSCC(=O)[*:1])CC(=O)[C@H](CO)N[*:2])C(=O)O; 3Pal(6-Ph) = N[C@@H](Cc1ccc(-c2ccccc2)nc1)C(=O)O; Phe(4-COOH) = N[C@@H](Cc1ccc(C(=O)O)cc1)C(=O)O; Bip = N[C@@H](Cc1ccc(-c2ccccc2)cc1)C(=O)O; Nle(6-COOH) = N[C@@H](CCCCC(=O)O)C(=O)O; X1 = N=C(CN)NCCC[C@H](N[*:1])C(=O)[*:2]; Phe(4-F) = N[C@@H](Cc1ccc(F)cc1)C(=O)O; Hyp = O=C(O)[C@@H]1C[C@@H](O)CN1; NMeF = CN[C@@H](Cc1ccccc1)C(=O)O; 4Pal = N[C@@H](Cc1ccncc1)C(=O)O; Cha = N[C@@H](CC1CCCCC1)C(=O)O; Cba = N[C@@H](CC1CCC1)C(=O)O; Chg = N[C@H](C(=O)O)C1CCCCC1
How the values were obtained:
[1] = molecular target: T1, BMP4 (Homo sapiens, UniProt P12644); assay: BMP4 signal transduction inhibitory activity: SMAD1 phosphorylation by BMP4 stimulus, AlphaLISA SureFire, A549 cells; type: cell-based; details: for aLISA BMP4: inhibition of SMAD1 phosphorylation by BMP4 stimulus, A549 cells, peptides of Synthesis 2, classes A-C, ND; for aLIZA BMP4 (0.2 nM) % Inh: SMAD1 phosphorylation by BMP4 stimulus, peptide conc. in assay 0.02, 0.2, 2 nM, class symbols; for aLIZA BMP4 (0.2 nM) % inh: peptide 0.02, 0.2, 2 nM, Table 6
T1 sequence (P12644 293-408): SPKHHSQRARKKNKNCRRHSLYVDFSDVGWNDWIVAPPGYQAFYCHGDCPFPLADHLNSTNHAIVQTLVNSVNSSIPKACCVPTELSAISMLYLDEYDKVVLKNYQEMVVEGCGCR

[2] = molecular target: T2, BMP7 (Homo sapiens, UniProt P18075); assay: BMP7 signal transduction inhibitory activity: SMAD1 phosphorylation by BMP7 stimulus, A549 cells; type: cell-based; details: for aLISA BMP7: inhibition of SMAD1 phosphorylation by BMP7 stimulus, A549 cells, peptides of Synthesis 2, classes A-D, ND; for aLIZA BMP7 (10 nM) % Inh: SMAD1 phosphorylation by BMP7 stimulus, peptide conc. in assay 10, 100, 1000 nM, class symbols; for aLIZA BMP7 (10 nM) % inh: peptide 10, 100, 1000 nM, Table 6
T2 sequence (P18075 293-431): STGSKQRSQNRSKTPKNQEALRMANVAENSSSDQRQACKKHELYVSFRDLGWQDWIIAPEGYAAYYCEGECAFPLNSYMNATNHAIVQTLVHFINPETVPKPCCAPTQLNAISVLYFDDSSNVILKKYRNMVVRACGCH
Outline: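 Inhibition was measured as loss of BMP7-induced SMAD1 phosphorylation, using 10 nM BMP7 on A549 cells. Most peptides were given as three-concentration sets, such as 1/10/100, 10/100/1,000, 100/300/1,000 or 10/30/90 nM. Others were given as eight 1/3-ratio dilutions from 100 or 1,000 nM, alongside Noggin as control.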

[3] = SMAD1 phosphorylation, BMP4 0.2 nM, peptide conc. in assay 0.2, 2, 20 nM
[4] = SMAD1 phosphorylation, BMP7 10 nM, peptide conc. in assay 1, 10, 100 nM

332 (FG[NMeF]G[Bip]ADD[Cha]A[NMeF]LHCG-NH2; not fully specified (N-terminus, bridges)) [compound 332]
aLISA BMP4 (0.2 nM) % inh [1, 3]: ND (the inhibitory activity was less than 30% at the maximum concentration evaluated) | aLISA BMP7 (10 nM) % inh [2, 4]: D (showed less than 30% of inhibitory activity in 10 nM-addition zone and showed 30% or more of inhibitory activity in 100 nM-addition zone)

377 (FG[NMeF]G[4Pal]GDD[Cha]A[NMeF]LHCG-NH2; not fully specified) [compound 377]
aLISA BMP4 (0.2 nM) % inh ([1]; BMP4 0.2 nM stimulus, peptide conc. in assay 2, 20, 200 nM): ND (the inhibitory activity was less than 30% at the maximum concentration evaluated) | aLISA BMP7 (10 nM) % inh ([2]; BMP7 10 nM stimulus, peptide conc. in assay 10, 30, 90 nM): F (showed less than 30% of inhibitory activity in 10 nM-addition zone and showed 30% or more of inhibitory activity in 30 nM-addition zone)

348 (FG[NMeF]G[Bip]GDD[Cha]A[NMeF]LACG-NH2; not fully specified (N-terminus, bridges)) [compound 348]
aLISA BMP4 (0.2 nM) % inh [1, 3]: A (showed less than 30% of inhibitory activity in 2 nM-peptide-addition zone and showed 30% or more of inhibitory activity in 20 nM-addition zone) | aLISA BMP7 (10 nM) % inh [2, 4]: D (showed less than 30% of inhibitory activity in 10 nM-addition zone and showed 30% or more of inhibitory activity in 100 nM-addition zone)

81 ({CH2CO}-E[KCOpipzaa]VYVDR[Bip][MeKCOpipzaa]YP[Bip][Phe(4-F)][Phe(4-COOH)][4Pal]SCG-NH2; thioether N-17; not fully specified) [compound 81]
aLISA BMP4 [1]: A (showed an inhibitory activity of 50% or more in a zone to which the peptide was added to in an amount of 0.2 nM) | aLISA BMP7 [2]: C (showed less than 50% of inhibitory activity in 10 nM-addition zone and showed 50% or more of inhibitory activity in 100 nM-addition zone)

250 (ERVYVDR[3Pal(6-Ph)]HYV[Bip]Y[Phe(4-COOH)][Phe(4-COOH)]SCG-NH2; not fully specified) [compound 250]
aLIZA BMP4 (0.2 nM) % Inh [1]: C (showed less than 30% of inhibitory activity in 0.2 nM-addition zone and showed 30% or more of inhibitory activity in 2 nM-addition zone) | aLIZA BMP7 (10 nM) % Inh [2]: E (showed less than 30% of inhibitory activity in 100 nM-addition zone and showed 30% or more of inhibitory activity in 1,000 nM-addition zone)

307 (ERV[Phe(4-COOH)][Chg][KCOpipzaa]R[3Pal(6-Ph)][KCOpipzaa]Y[Hyp][Bip]Y[Phe(4-COOH)][Phe(4-COOH)]SCG-NH2; not fully specified) [compound 307]
aLIZA BMP4 (0.2 nM) % inh ([1]; BMP4 0.2 nM): C (showed less than 30% of inhibitory activity in 0.2 nM-addition zone and showed 30% or more of inhibitory activity in 2 nM-addition zone) | aLIZA BMP7 (10 nM) % inh ([2]; BMP7 10 nM): E (showed less than 30% of inhibitory activity in 100 nM-addition zone and showed 30% or more of inhibitory activity in 1,000 nM-addition zone)

317 (ERV[Phe(4-COOH)][Cba][KCOpipzaa]R[3Pal(6-Ph)][KCOpipzaa]Y[Hyp][Bph3C][4Pal][Phe(4-COOH)][Phe(4-COOH)]SCG-NH2; not fully specified) [compound 317]
aLIZA BMP4 (0.2 nM) % inh ([1]; BMP4 0.2 nM): B (showed less than 30% of inhibitory activity in 0.02 nM-addition zone and showed 30% or more of inhibitory activity in 0.2 nM-addition zone) | aLIZA BMP7 (10 nM) % inh ([2]; BMP7 10 nM): ND (the inhibitory activity was less than 30% at the maximum concentration evaluated)

263 (ERVYV[KCOpipzaa]R[3Pal(6-Ph)]SYV[Bip]Y[Phe(4-COOH)][Phe(4-COOH)]SCG-NH2; not fully specified) [compound 263]
aLIZA BMP4 (0.2 nM) % Inh [1]: C (showed less than 30% of inhibitory activity in 0.2 nM-addition zone and showed 30% or more of inhibitory activity in 2 nM-addition zone) | aLIZA BMP7 (10 nM) % Inh [2]: E (showed less than 30% of inhibitory activity in 100 nM-addition zone and showed 30% or more of inhibitory activity in 1,000 nM-addition zone)

CC(C)C[C@@H]1NC(=O)[C@H](Cc2ccc(O)cc2)NC(=O)[C@H](C(C)C)NC(=O)[C@H](CCCNC(=N)N)NC(=O)[C@H](CCCCC(=O)O)NC(=O)CSC[C@@H](C(=O)NCCC(=O)NC(CCC(=O)O)C(=O)O)CC(=O)[C@H](CO)NC(=O)[C@H](Cc2ccc(C(=O)O)cc2)NC(=O)[C@H](Cc2ccc(C(=O)O)cc2)NC(=O)[C@H](Cc2ccc(O)cc2)NC(=O)[C@H](Cc2ccc(-c3ccccc3)cc2)NC(=O)[C@H](C(C)C)NC(=O)[C@H](Cc2ccc(O)cc2)NC(=O)[C@@H]2CCCN2C(=O)[C@H](Cc2ccc(-c3ccccc3)nc2)NC(=O)[C@H](CCCNC(=N)CN)NC(=O)[C@H](CC(=O)O)NC1=O (stereo partly drawn) [SEQ ID No. 84] ([Nle(6-COOH)]RVYLD[X1][3Pal(6-Ph)]PYV[Bip]Y[Phe(4-COOH)][Phe(4-COOH)]; linker N-C via X7)
aLISA BMP4 [1]: A (showed an inhibitory activity of 50% or more in a zone to which the peptide was added to in an amount of 0.2 nM) | aLISA BMP7 [2]: C (showed less than 50% of inhibitory activity in 10 nM-addition zone and showed 50% or more of inhibitory activity in 100 nM-addition zone)
